Bridge positions count the residues as written; N and C are the ends. Square brackets hold non-standard residues; d marks the D form. Ends that are not written are not given here. bb‑DTPA gadolinium tetramer = not defined here
Tests used:
[1] = molecular target: T1, dried human collagen type I (Homo sapiens, UniProt P02452+P08123); test: Dried collagen assay (DCA), human collagen; assay type: binding; details: 5 μM peptide in PBS pH 7.4, 2 hours at room temperature; percent bound
T1 construct: Acid soluble human collagen extracted from placenta; purchased Sigma C7774; host or cells: human placenta (tissue extract)

[2] = molecular target: T2, dried rat collagen type I (Rattus norvegicus, UniProt P02454+P02466); test: Dried collagen assay (DCA), rat collagen; assay type: binding; details: for % Collagen Binding, Dried Rat: 5 μM peptide in PBS pH 7.4, 2 hours at room temperature, percent bound
T2 construct: Rat collagen (acid soluble, type I, rat tail, Upstate USA, Inc, cat# 08-115); purchased Upstate USA, Inc 08-115; host or cells: rat tail (tissue extract)
Experimental: Peptides identified using the phage-display protocol were screened using dried collagen assays (DCA) as described in A.-D. below.
For the final assay, a 1:10 volume of 10×PBS (100 mM NaH2PO4, 1.5 M NaCl pH 7.4) is added to the collagen solution (final 1×PBS) and incubated at 37° C. for 2 hours.
An additional 90 μL is reserved in a HPLC glass vial as a measure of the total concentration.

[3] = system: perfused Langendorff rat heart; test: Equilibrium binding to perfused Langendorff rat heart; details: for heart uptake relative to GdDTPA: perfused rat heart; for Heart: 10 minutes recirculating perfusion
Experimental: After deep anesthesia with pentobarbital (80 mg/kg ip), the chest cavity of a male Sprague Dawley rat (300 g) was opened, retracted and the heart was removed immediately and placed in an ice-cold normal Krebs-Henseleit (K-H) solution (NaCl, 118 mM; KCl, 4.7 mM; CaCl2, 2.5 mM; MgSO4, 1.2 mM; KH2PO4, 1.2 mM; NaHCO3, 25 mM; glucose, 5.5 mM). A K-H buffer filled 20 Gauge needle was inserted into the apex of the heart penetrating into the bottom of the chamber. This was attached to a pressure transducer used to record and monitor heart function. Perfusion pressure (60 mmHg) was monitored using a second transducer. The heart was perfused at a constant flow rate of 10-12 mL/min with 37° C. Krebs-Henseleit buffer saturated with a mixture of 95% O2 and 5% CO2 gas. The heart was paced at 300 beats/min.
Two peptide test articles, a high collagen binding peptide (SEQ ID NO: 144) and a low collagen binding peptide (SEQ ID NO: 173), are compared to GdDTPA. The appropriate test article was added to the K-H buffer solution to a total concentration of either 3 or 30 μM. Also added to the K-H buffer was a radiotracer analog of each peptide or GdDTPA. For the peptides, the radiotracer was an aliquot of the appropriate I-125 labeled peptide derivative (see Example 5 for protocol). For GdDTPA, the tracer added was Tc-99m labeled DTPA. The amount of radioactivity added to the buffer solution was 1-5 μCi.
The heart was perfused for a period of 10 minutes and the perfusion solution was recycled through the heart. The total volume of K-H buffer used was 50-60 mL. After 10 min, the heart was removed from the apparatus and any connective tissue was removed. The heart was opened, fluid in the chambers drained, and the interior blotted dry with filter paper. The heart was then weighed and the radioactivity in the heart measured with a Packard Cobra 5003 Gamma Scintillation counter. An aliquot of the K-H buffer was also weighed and counted. Studies were performed at least in duplicate.
The dual peptide gadolinium tetramer (Compound ID 803) was compared to GdDTPA. Compound ID 803 and GdDTPA were added to the K-H buffer solution to a total concentration of 3 μM. Also added to the K-H buffer was a radiotracer analog of Compound ID 803 or GdDTPA. For Compound ID 803, the radiotracer was an aliquot of the In-111 labeled compound. For GdDTPA, the tracer added was Tc-99m labeled DTPA. The amount of radioactivity added to the buffer solution was 1-5 μCi.

[4] = system: perfused Langendorff rat heart; test: Washout kinetics from perfused Langendorff rat heart; details: for fraction of compound present at 0 minutes post infusion that remains at 10 minutes: 10 minutes after infusion
Experimental: A K-H buffer filled 20 Gauge needle was inserted into the apex of the heart penetrating into the bottom of the chamber. This was attached to a pressure transducer used to record and monitor heart function. Perfusion pressure (60 mmHg) was monitored using a second transducer. The heart was perfused at a constant flow rate of 10-12 mL/min with 37° C. […] The heart was paced at 300 beats/min.
A Langendorff rat heart preparation was perfused with K-H buffer at a rate of 10-12 mL/min. […] After the infusion was finished, the heart was either removed or perfusion was allowed to continue for an additional 10 minutes and then the heart was removed. The perfusion buffer was not recirculated through the heart. After removal of any connective tissue, the heart was opened, fluid in the chambers drained, and the interior blotted dry with filter paper. […] An aliquot of the K-H buffer was also weighed and counted. Concentration estimates were decay corrected. Studies were performed at least in duplicate.

[5] = MR phantom study: T1 of samples at 0.47 Tesla; assay type: physicochemical
Experimental: Acid soluble human collagen type I extracted from placenta (Sigma, cat# C7774, lot#083K375) was dissolved in 15 mM HCl (3.5 mg/mL) by vortexing and gently shaking for 3-4 hours at 4° C. The acid soluble collagen was dialyzed against PBS (pH 7.4). Protein concentration was determined by the BCA method (Pierce, Cat#23225) using bovine collagen (Vitrogen, cat#FXP-019) as a reference standard. The final collagen concentration for the stock solution was 9 μM.
Rat collagen (acid soluble, type I, rat tail, Upstate USA, Inc. Cat# 08-115) was dialyzed against 10 mM Phosphate buffer (NaH2PO4, pH 4.2). The final collagen concentration for the stock solution was approx. 12 μM.
(§1) Samples: • 1. […] Sample prepared as sample 2, but centrifuged to separate insoluble rat collagen gel • 5. Sample prepared as sample 3, but centrifuged to separate insoluble human collagen gel • 6. 27 μM GdDTPA solution in PBS, pH 7.4 • 7. 27 μM GdDTPA in a solution of 5.0 μM rat type I collagen in 10 mM phosphate buffer, pH 5 incubated at 37° C. overnight to form a gel • 8. Sample prepared as in sample 7, but centrifuged to separate insoluble rat collagen gel • 9. Homogeneous gel of 5 μM rat collagen • 10. Homogeneous gel of 7.5 μM human collagen
T1 was determined for samples 1, 2, 3, 6, 7, 9, 10 at 0.47 Tesla using a Bruker NMS120 minispec NMR analyzer operating at 37° C.

[6] = molecular target: T3, rat type I collagen gel (Rattus norvegicus, UniProt P02454+P02466); test: MR phantom imaging of collagen gel samples at 4.7 T
T3 construct: Rat collagen (acid soluble, type I, rat tail, Upstate USA, Inc, cat# 08-115); purchased Upstate USA, Inc 08-115; host or cells: rat tail (tissue extract)
Experimental: as §1
Samples for imaging were placed in glass tubes that were in turn placed in tubes containing water. Images were acquired at 4.7 T on a Bruker Biospec Imager using a Multi-Slice Multi-Echo Method with variable Relaxation Delay (MSMEVTR) experiment. The spin echo time and the relaxation delay were set to TE=11.2 ms and TR=500 ms, respectively with a flip angle of 30°. Images were acquired of sample 2, sample 4, sample 7, and sample 8. […] Sample 7 and 8 show uniform signal intensity.

[7] = Biodistribution (heart, blood) after tail vein injection, radiotracer counting; assay type: in vivo, Sprague-Dawley rats; details: for Blood (% ID/g) / Heart (% ID/g): rat, 0.5 μmol/kg tail vein
Experimental: Concentration estimates were decay corrected. Studies were performed at least in duplicate.

T2 sequence (P02454 152-1207 limits assumed): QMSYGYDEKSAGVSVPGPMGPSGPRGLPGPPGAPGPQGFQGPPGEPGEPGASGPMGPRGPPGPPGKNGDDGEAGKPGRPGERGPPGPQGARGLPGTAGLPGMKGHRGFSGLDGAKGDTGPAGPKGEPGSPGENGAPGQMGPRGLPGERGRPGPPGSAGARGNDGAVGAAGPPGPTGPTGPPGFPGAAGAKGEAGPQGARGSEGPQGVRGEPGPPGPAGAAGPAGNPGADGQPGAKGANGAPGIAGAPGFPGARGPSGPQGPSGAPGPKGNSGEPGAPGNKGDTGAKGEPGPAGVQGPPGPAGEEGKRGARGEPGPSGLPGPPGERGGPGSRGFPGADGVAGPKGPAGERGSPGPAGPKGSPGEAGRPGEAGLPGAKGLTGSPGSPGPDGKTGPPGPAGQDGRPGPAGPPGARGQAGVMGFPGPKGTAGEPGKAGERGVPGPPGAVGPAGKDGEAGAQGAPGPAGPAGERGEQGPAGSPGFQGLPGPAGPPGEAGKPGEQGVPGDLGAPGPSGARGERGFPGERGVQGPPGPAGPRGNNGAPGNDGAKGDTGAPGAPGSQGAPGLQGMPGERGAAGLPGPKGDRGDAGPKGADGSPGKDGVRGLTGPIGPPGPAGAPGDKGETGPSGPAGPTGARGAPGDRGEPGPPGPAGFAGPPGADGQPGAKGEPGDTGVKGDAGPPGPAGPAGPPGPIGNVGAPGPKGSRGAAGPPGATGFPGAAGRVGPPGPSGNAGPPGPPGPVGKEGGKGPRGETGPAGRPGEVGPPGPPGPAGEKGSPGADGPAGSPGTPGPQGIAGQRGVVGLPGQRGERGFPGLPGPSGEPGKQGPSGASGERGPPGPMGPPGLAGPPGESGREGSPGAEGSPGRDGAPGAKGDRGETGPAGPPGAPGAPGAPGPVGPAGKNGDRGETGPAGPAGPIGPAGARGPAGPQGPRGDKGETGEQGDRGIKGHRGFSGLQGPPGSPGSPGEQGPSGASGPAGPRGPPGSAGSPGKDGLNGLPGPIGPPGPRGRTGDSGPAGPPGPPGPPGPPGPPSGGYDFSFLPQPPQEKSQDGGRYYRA
T2 sequence (P02466 86-1125 limits assumed): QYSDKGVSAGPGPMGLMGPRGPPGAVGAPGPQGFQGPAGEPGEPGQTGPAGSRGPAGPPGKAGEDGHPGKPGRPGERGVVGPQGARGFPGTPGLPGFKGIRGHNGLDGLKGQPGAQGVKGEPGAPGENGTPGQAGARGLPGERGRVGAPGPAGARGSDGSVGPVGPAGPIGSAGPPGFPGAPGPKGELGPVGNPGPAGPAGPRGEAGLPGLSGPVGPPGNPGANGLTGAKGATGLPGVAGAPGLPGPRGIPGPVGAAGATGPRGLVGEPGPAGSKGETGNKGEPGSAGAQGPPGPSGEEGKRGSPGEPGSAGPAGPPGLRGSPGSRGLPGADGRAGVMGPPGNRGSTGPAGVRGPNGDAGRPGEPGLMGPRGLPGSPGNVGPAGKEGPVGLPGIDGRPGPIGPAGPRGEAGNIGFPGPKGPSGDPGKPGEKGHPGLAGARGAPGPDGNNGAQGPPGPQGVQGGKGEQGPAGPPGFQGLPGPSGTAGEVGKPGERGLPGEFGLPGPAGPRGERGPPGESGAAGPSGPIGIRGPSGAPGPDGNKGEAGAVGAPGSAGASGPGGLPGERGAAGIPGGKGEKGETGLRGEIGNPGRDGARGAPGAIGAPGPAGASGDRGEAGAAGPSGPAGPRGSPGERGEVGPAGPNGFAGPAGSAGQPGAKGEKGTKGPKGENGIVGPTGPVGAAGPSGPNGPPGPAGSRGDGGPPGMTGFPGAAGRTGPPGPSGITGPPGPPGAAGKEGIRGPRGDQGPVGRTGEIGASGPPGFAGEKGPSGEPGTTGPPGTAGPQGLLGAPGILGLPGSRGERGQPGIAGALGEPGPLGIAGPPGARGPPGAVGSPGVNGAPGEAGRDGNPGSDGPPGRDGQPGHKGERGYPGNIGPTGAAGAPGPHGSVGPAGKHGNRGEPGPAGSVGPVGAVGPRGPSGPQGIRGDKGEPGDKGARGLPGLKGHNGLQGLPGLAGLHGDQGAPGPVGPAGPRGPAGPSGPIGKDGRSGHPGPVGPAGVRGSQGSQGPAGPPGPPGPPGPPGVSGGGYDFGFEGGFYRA
T1 sequence (P02452 162-1218 limits assumed): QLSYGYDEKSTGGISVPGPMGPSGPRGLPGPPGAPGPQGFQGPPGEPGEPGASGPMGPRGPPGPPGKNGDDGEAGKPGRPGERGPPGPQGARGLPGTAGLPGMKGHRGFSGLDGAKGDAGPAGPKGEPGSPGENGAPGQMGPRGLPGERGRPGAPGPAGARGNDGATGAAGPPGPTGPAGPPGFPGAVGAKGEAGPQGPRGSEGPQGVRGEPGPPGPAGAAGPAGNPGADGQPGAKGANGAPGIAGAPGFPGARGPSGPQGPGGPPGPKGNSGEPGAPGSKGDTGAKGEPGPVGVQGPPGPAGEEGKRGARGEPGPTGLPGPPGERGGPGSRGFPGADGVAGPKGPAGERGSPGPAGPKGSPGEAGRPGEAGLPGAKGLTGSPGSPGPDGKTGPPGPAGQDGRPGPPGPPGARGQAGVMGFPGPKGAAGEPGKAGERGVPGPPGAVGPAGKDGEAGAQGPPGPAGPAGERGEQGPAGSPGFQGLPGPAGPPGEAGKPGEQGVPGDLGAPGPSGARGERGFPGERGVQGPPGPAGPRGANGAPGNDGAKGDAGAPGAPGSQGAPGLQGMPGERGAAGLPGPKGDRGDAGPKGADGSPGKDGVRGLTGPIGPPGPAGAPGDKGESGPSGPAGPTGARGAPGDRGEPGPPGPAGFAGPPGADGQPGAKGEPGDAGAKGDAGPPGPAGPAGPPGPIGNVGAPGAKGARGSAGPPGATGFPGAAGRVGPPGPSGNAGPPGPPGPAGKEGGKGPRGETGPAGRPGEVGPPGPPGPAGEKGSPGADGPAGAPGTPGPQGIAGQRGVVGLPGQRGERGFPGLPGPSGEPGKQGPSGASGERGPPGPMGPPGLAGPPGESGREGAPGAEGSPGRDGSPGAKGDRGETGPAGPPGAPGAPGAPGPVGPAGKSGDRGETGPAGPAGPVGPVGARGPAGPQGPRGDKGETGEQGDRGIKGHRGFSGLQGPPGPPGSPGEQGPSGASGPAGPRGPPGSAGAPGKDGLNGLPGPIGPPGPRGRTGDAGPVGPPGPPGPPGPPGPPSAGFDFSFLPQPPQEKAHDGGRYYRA
T1 sequence (P08123 80-1119 limits assumed): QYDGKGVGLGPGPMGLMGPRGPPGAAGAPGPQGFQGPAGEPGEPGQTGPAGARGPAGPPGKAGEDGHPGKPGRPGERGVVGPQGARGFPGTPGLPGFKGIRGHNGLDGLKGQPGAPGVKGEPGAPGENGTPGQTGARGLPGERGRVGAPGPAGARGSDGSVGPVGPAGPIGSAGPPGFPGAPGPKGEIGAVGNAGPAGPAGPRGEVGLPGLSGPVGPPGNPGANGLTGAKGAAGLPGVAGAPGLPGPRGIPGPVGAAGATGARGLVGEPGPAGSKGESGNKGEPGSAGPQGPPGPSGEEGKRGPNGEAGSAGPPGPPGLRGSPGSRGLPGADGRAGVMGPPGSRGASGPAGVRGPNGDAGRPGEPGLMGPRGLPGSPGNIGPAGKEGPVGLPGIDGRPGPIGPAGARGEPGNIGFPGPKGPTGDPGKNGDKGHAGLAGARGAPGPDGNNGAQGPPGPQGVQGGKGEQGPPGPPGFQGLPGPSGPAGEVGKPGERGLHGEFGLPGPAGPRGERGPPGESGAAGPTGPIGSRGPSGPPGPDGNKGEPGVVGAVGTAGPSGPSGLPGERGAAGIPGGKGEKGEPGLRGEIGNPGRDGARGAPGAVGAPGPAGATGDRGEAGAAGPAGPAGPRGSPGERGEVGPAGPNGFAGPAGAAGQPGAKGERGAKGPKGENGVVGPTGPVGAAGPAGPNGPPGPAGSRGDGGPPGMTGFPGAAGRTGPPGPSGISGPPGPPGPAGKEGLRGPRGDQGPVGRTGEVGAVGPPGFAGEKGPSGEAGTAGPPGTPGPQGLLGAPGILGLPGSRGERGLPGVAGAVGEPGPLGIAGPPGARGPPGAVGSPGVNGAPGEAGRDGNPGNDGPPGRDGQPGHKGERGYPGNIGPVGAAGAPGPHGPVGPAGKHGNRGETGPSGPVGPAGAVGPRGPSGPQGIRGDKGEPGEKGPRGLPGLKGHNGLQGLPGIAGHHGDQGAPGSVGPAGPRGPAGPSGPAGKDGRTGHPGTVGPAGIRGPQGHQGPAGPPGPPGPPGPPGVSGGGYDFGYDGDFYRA
T3 sequence (P02454 152-1207 limits assumed): as the sequence (P02454 152-1207 limits assumed) above
T3 sequence (P02466 86-1125 limits assumed): as the sequence (P02466 86-1125 limits assumed) above

Row | Substance | Dried Human Collagen Binding [1] | % Collagen Binding, Dried Rat [2] | other results
1 | 2 (WGWCEWAQNNCWNY) [compound 2] | 14% |  | 
2 | 3 (PWWCHEMPSMCFGF) [compound 3] | 2% |  | 
3 | 13 (QWTCSGDEYTWHCNYE; disulfide 4-13 (inferred)) [compound 13] | 78-85% |  | 
4 | 36 (SWSCGGDHNAWKCQYS; disulfide 4-13 (inferred)) [compound 36] | 7% |  | 
5 | 37 (LWNCHGTDANWKCVLN; disulfide 4-13 (inferred)) [compound 37] | 7% |  | 
6 | 38 (GWSCHGDAADWPCQWS; disulfide 4-13 (inferred)) [compound 38] | 6% |  | 
7 | 39 (GWQCSGDASVWNCDWI; disulfide 4-13 (inferred)) [compound 39] | 6% |  | 
8 | 65 (KWECVHTKGEWYCETK; disulfide 4-13 (inferred)) [compound 65] | 7% |  | 
9 | 74 (QWHCTTRFPHHYCLYG) [compound 74] | 67-69% |  | 
10 | 112 (AKACSVHDEFGCLIS; disulfide 4-12 (inferred)) [compound 112] | 9% |  | 
11 | 113 (FSECVWVNAYQCEYF; disulfide 4-12 (inferred)) [compound 113] | 3% |  | 
12 | 130 (WWACQKGRHDWEKCRWL; disulfide 4-14 (inferred)) [compound 130] | 32% |  | 
13 | 190 (GQWTCSGDEYTWHCNYE) [compound 190] |  |  | % Binding Collagen I Rat ([2]; chelate conjugates): 5%
14 | Compound ID 803: dual peptide, gadolinium tetramer; bb-DTPA tetramer diacid coupled to N-terminus of SEQ ID NO. 264 peptide ({bb‑DTPA gadolinium tetramer}-GQWHCTTSFPHHYCLYG; disulfide 5-14 (inferred); reading uncertain; also: Gd complex) [dual peptide, gadolinium tetramer; 264 peptide] |  |  | heart uptake relative to GdDTPA [3]: about 7 times; fraction of compound present at 0 minutes post infusion that remains at 10 minutes [4]: 54%
15 | Glu-DTPA-Gd-G.Q.W.H.C.T.T.R.F.P.H.H.Y.C.L.Y.G-PEG-H (GQWHCTTRFPHHYCLYG; disulfide 5-14 (inferred); not fully specified (N-terminus, C-terminus); also: Gd complex of DTPA) [SEQ ID NO. 186] |  |  | T1 ([5]; in 5.0 μM rat collagen gel, 10 μM Compound ID 1022 or 27 μM GdDTPA, 37° C.): 2.370 s; T1 ([5]; in 7.5 μM human collagen gel, 10 μM Compound ID 1022, 37° C.): 2.100 s; T1 ([5]; in PBS pH 7.4, 10 μM Compound ID 1022 or 27 μM GdDTPA, 37° C.): 2.375 s; MR signal of centrifuged collagen gel pellet versus supernatant [6]: the pellet for sample 4 was much brighter than the supernatant
16 | Q W T C S G D A Y T W H C N Y E (QWTCSGDAYTWHCNYE) [SEQ ID NO. 144] |  |  | Heart:Blood ([7]; 1 min post injection): 0.38; Heart:Blood ([7]; 5 min post injection): 1.08; Blood (% ID/g) ([7]; 1 min post injection): 1.8 ± 0.2 % ID/g; Heart (% ID/g) ([7]; 1 min post injection): 0.68 ± 0.01 % ID/g; Blood (% ID/g) ([7]; 5 min post injection): 0.46 ± 0.07 % ID/g; Heart (% ID/g) ([7]; 5 min post injection): 0.50 ± 0.16 % ID/g; Heart:Buffer ([3]; buffer 3.0 μM): 3.3 ± 0.8; Heart ([3]; buffer 3.0 μM): 9.8 ± 2.3 nmol/g; Heart:Buffer ([3]; buffer 30 μM): 4.0 ± 1.7; Heart ([3]; buffer 30 μM): 120 ± 50 nmol/g; heart uptake relative to GdDTPA [3]: about 10 times; Heart (% ID/g) ([4]; 0 min after infusion): 4.6 ± 1.1 % ID/g; Heart (% ID/g) ([4]; 10 min after infusion, non-recirculated buffer): 3.1 ± 1.6 % ID/g; fraction of compound present at 0 minutes post infusion that remains at 10 minutes [4]: 68%
17 | Q W T C S G D E Y T w H C N Y E (QWTCSGDEYT[dW]HCNYE; disulfide 4-13 (inferred)) [SEQ ID NO. 173] |  |  | Heart:Buffer ([3]; buffer 3.0 μM): 0.37 ± 0.08; Heart ([3]; buffer 3.0 μM): 1.1 ± 0.2 nmol/g; specific heart uptake (in words) ([3]; heart concentrations compared with GdDTPA): no specific uptake

The next lines start with results.

Row | Dried Human Collagen Binding [1] | % Collagen Binding, Dried Rat [2] | Substance | other results
18 |  | 7% | 137 (YHACYQAGCWAW; disulfide 4-9 (inferred)) [compound 137] | 
19 |  | 6% | 142 (QWTCSADEYTWHCNYE) [compound 142] | 
20 | 5% |  | 147 (QWTCSGDEYTAHCNYE) [compound 147] | 
21 | 7% |  | 159 (YHACYQAGCWIW) [compound 159] | 
22 |  | 53% | 163 (YHACYQAGCWIW) [compound 163] | 
23 | 2% | 4% | 165 (QWTCSGDEYTWHCNYE) [compound 165] | 
24 | 2% | 3% | 166 (QWTCSGDEYTWHCNYE) [compound 166] | 
25 | 4% |  | 167 (QWTCSGDEYTWHCNYE) [compound 167] | 
26 | 3% | 2% | 168 (QWTCSGDEYTWHCNYE) [compound 168] | 
27 |  | 4% | 169 (QWTCSGDEYTWHCNYE) [compound 169] | 
28 |  | 6% | 171 (QWTCSGDEYTWHCNYE) [compound 171] | 
29 | 5% | 4% | 173 (QWTCSGDEYTWHCNYE) [compound 173] | 
30 | 5% |  | 174 (QWTCSGDEYTWHCNYE) [compound 174] | 
31 | 2% | 2% | 175 (QWTCSGDEYTWHCNYE) [compound 175] | 
32 | 2% | 2% | 176 (QWTCSGDEYTWHCNYE) [compound 176] | 

From patent publication US20080058636A1, “METHODS OF MYOCARDIAL IMAGING” (Epix Pharmaceuticals, Inc., priority 2005, published 2008)
